From patent publication US20200079854A1 (Johns Hopkins, published 2020)

B1: IDH2_R140Q_B7_D4 (scFv)
scFv: DIQMTQSPSSLSASVGDRVTITCRASQDVNTAVAWYQQKPGKAPKLLIYSASFLYSGVPSRFSGSRSGTDFTLTISSLQPEDFATYYCQQYSYSPPTFGQGTKVEIKRTGGGSGGGGSGGGASEVQLVESGGGLVQPGGSLRLSCAASGFNISDTYIHWVRQAPGKGLEWVASISPRTGYNRYADSVKGRFTISADTSKNTAYLQMNSLRAEDTAVYYCSRAYYSYAYAMDVWGQGTLVTVSS
B2: p53_R248W_A2_c111 (scFv)
scFv: DIQMTQSPSSLSASVGDRVTITCRASQDVNTAVAWYQQKPGKAPKLLIYSASFLYSGVPSRFSGSRSGTDFTLTISSLQPEDFATYYCQQSGYQPDTFGQGTKVEIKRTGGGSGGGGSGGGASEVQLVESGGGLVQPGGSLRLSCAASGFNISWYAMHWVRQAPGKGLEWVAEIWPDSDWTYYADSVKGRFTISADTSKNTAYLQMNSLRAEDTAVYYCSRYYYSSAFDVWGQGTLVTVSS
B3: p53_R248QW_A2_c114 (scFv)
scFv: DIQMTQSPSSLSASVGDRVTITCRASQDVNTAVAWYQQKPGKAPKLLIYSASFLYSGVPSRFSGSRSGTDFTLTISSLQPEDFATYYCQQYLYQPWTFGQGTKVEIKRTGGGSGGGGSGGGASEVQLVESGGGLVQPGGSLRLSCAASGFNIDYYGMHWVRQAPGKGLEWVASLYGGSDSTDYADSVKGRFTISADTSKNTAYLQMNSLRAEDTAVYYCSRQYSAYFDYWGQGTLVTVSS
B4: p53_R248Q_A2_c14 (scFv)
scFv: DIQMTQSPSSLSASVGDRVTITCRASQDVNTAVAWYQQKPGKAPKLLIYSASFLYSGVPSRFSGSRSGTDFTLTISSLQPEDFATYYCQQSLYGPFTFGQGTKVEIKRTGGGSGGGGSGGGASEVQLVESGGGLVQPGGSLRLSCAASGFNIAYEYMHWVRQAPGKGLEWVALIGPDSGYTYYADSVKGRFTISADTSKNTAYLQMNSLRAEDTAVYYCSRVWYYSTYGMDYWGQGTLVTVSS
B5: p53_R248Q_A2_c10 (scFv)
scFv: DIQMTQSPSSLSASVGDRVTITCRASQDVNTAVAWYQQKPGKAPKLLIYSASFLYSGVPSRFSGSRSGTDFTLTISSLQPEDFATYYCQQSGYAPITFGQGTKVEIKRTGGGSGGGGSGGGASEVQLVESGGGLVQPGGSLRLSCAASGFNISYYSMHWVRQAPGKGLEWVADVDPDSDYTEYADSVKGRFTISADTSKNTAYLQMNSLRAEDTAVYYCSRSWIHMFSMDYWGQGTLVTVSS
B6: p53_R248W_A2_c18 (scFv)
scFv: DIQMTQSPSSLSASVGDRVTITCRASQDVNTAVAWYQQKPGKAPKLLIYSASFLYSGVPSRFSGSRSGTDFTLTISSLQPEDFATYYCQQYSYSPITFGQGTKVEIKRTGGGSGGGGSGGGASEVQLVESGGGLVQPGGSLRLSCAASGFNLFGYGMHWVRQAPGKGLEWVAEIGPYYYYTSYADSVKGRFTISADTSKNTAYLQMNSLRAEDTAVYYCSRENYDMAMDYWGQGTLVTVSS
B7: p53_R248W_A2_c12 (scFv)
scFv: DIQMTQSPSSLSASVGDRVTITCRASQDVNTAVAWYQQKPGKAPKLLIYSASFLYSGVPSRFSGSRSGTDFTLTISSLQPEDFATYYCQQYSYAPITFGQGTKVEIKRTGGGSGGGGSGGGASEVQLVESGGGLVQPGGSLRLSCAASGFNIGYYTMHWVRQAPGKGLEWVAEVSPWSYSTSYADSVKGRFTISADTSKNTAYLQMNSLRAEDTAVYYCSRDHWDEAFDVWGQGTLVTVSS
B8: p53_R248QW_A2_c117 (scFv)
scFv: DIQMTQSPSSLSASVGDRVTITCRASQDVNTAVAWYQQKPGKAPKLLIYSASFLYSGVPSRFSGSRSGTDFTLTISSLQPEDFATYYCQQGLYYPWTFGQGTKVEIKRTGGGSGGGGSGGGASEVQLVESGGGLVQPGGSLRLSCAASGFNVSYSSIHWVRQAPGKGLEWVAEIWPDSGQTWYADSVKGRFTISADTSKNTAYLQMNSLRAEDTAVYYCSRSSYFDAMDYWGQGTLVTVSS
B9: H/R/N RAS Q61R_A1_c118 (scFv)
scFv: DIQMTQSPSSLSASVGDRVTITCRASQDVNTAVAWYQQKPGKAPKLLIYSASFLYSGVPSRFSGSRSGTDFTLTISSLQPEDFATYYCQQSYTSPLTFGQGTKVEIKRTGGGSGGGGSGGGASEVQLVESGGGLVQPGGSLRLSCAASGFNIYYGVMHWVRQAPGKGLEWVAMIYPDSSWTYYADSVKGRFTISADTSKNTAYLQMNSLRAEDTAVYYCSRDQDFHYMNYYLSYALDYWGQGTLVTVSS
B10: H/R/N RAS Q61R_A1_c122 (scFv)
scFv: DIQMTQSPSSLSASVGDRVTITCRASQDVNTAVAWYQQKPGKAPKLLIYSASFLYSGVPSRFSGSRSGTDFTLTISSLQPEDFATYYCQQYWYLPTTFGQGTKVEIKRTGGGSGGGGSGGGASEVQLVESGGGLVQPGGSLRLSCAASGFNISWYDIHWVRQAPGKGLEWVADIEPSVGYTYYADSVKGRFTISADTSKNTAYLQMNSLRAEDTAVYYCSRSYPYYYFDYWGQGTLVTVSS
B11: H/R/N RAS Q61R_A1_c119 (scFv)
scFv: DIQMTQSPSSLSASVGDRVTITCRASQDVNTAVAWYQQKPGKAPKLLIYSASFLYSGVPSRFSGSRSGTDFTLTISSLQPEDFATYYCQQGQYSPFTFGQGTKVEIKRTGGGSGGGGSGGGASEVQLVESGGGLVQPGGSLRLSCAASGFNVSYEYMHWVRQAPGKGLEWVAEIYGGSDNTYYADSVKGRFTISADTSKNTAYLQMNSLRAEDTAVYYCSRPLGSYFDYWGQGTLVTVSS
B12: H/R/N RAS Q61R_A1_c117 (scFv)
scFv: DIQMTQSPSSLSASVGDRVTITCRASQDVNTAVAWYQQKPGKAPKLLIYSASFLYSGVPSRFSGSRSGTDFTLTISSLQPEDFATYYCQQSVYDPITFGQGTKVEIKRTGGGSGGGGSGGGASEVQLVESGGGLVQPGGSLRLSCAASGFNISGSWIHWVRQAPGKGLEWVAWLYPDSDYTYYADSVKGRFTISADTSKNTAYLQMNSLRAEDTAVYYCSRAHTYAFDYWGQGTLVTVSS
B13: KRAS_G12V_A11_V3 (scFv)
scFv: DIQMTQSPSSLSASVGDRVTITCRASQDVNTAVAWYQQKPGKAPKLLIYSASFLYSGVPSRFSGSRSGTDFTLTISSLQPEDFATYYCQQSSYTPITFGQGTKVEIKRTGGGSGGGGSGGGASEVQLVESGGGLVQPGGSLRLSCAASGFNISQGGIHWVRQAPGKGLEWVAYVYPGGGQTNYADSVKGRFTISADTSKNTAYLQMNSLRAEDTAVYYCSRGYDYSAFDYWGQGTLVTVSS
B14: KRAS_G12_VA11_V9 (scFv)
scFv: DIQMTQSPSSLSASVGDRVTITCRASQDVNTAVAWYQQKPGKAPKLLIYSASFLYSGVPSRFSGSRSGTDFTLTISSLQPEDFATYYCQQYAYYPITFGQGTKVEIKRTGGGSGGGGSGGGASEVQLVESGGGLVQPGGSLRLSCAASGFNISSTGMHWVRQAPGKGLEWVAELLGGSGNTNYADSVKGRFTISADTSKNTAYLQMNSLRAEDTAVYYCSRGLQYSAMDYWGQGTLVTVSS
B15: KRAS_G12V_A11_V23 (scFv)
scFv: DIQMTQSPSSLSASVGDRVTITCRASQDVNTAVAWYQQKPGKAPKLLIYSASFLYSGVPSRFSGSRSGTDFTLTISSLQPEDFATYYCQQYSYYPITFGQGTKVEIKRTGGGSGGGGSGGGASEVQLVESGGGLVQPGGSLRLSCAASGFNLSTHVMHWVRQAPGKGLEWVAEFYPYVGYTYYADSVKGRFTISADTSKNTAYLQMNSLRAEDTAVYYCSRGYRYQYMDVWGQGTLVTVSS
B16: KRAS_G12V_A11_V21 (scFv)
scFv: DIQMTQSPSSLSASVGDRVTITCRASQDVNTAVAWYQQKPGKAPKLLIYSASFLYSGVPSRFSGSRSGTDFTLTISSLQPEDFATYYCQQYTYYPITFGQGTKVEIKRTGGGSGGGGSGGGASEVQLVESGGGLVQPGGSLRLSCAASGFNLHGYLMHWVRQAPGKGLEWVAFIYPPNGYTYYADSVKGRFTISADTSKNTAYLQMNSLRAEDTAVYYCSRGVDYAYLDYWGQGTLVTVSS
B17: KRAS_G12V_A11V10 (scFv)
scFv: DIQMTQSPSSLSASVGDRVTITCRASQDVNTAVAWYQQKPGKAPKLLIYSASFLYSGVPSRFSGSRSGTDFTLTISSLQPEDFATYYCQQYEYYPITFGQGTKVEIKRTGGGSGGGGSGGGASEVQLVESGGGLVQPGGSLRLSCAASGFNFFSTVIHWVRQAPGKGLEWVAEIYPWSGSTYYADSVKGRFTISADTSKNTAYLQMNSLRAEDTAVYYCSRSRSSNYYFDVWGQGTLVTVSS
B18: KRAS_G12V_A11_V24 (scFv)
scFv: DIQMTQSPSSLSASVGDRVTITCRASQDVNTAVAWYQQKPGKAPKLLIYSASFLYSGVPSRFSGSRSGTDFTLTISSLQPEDFATYYCQQSSVEPWTFGQGTKVEIKRTGGGSGGGGSGGGASEVQLVESGGGLVQPGGSLRLSCAASGFNVSYYSIHWVRQAPGKGLEWVAYIYPWNDYTYYADSVKGRFTISADTSKNTAYLQMNSLRAEDTAVYYCSRGSYYSFDYWGQGTLVTVSS

biological target: T1, IDH2 wt peptide (…) HLA-B7 biotinylated monomer (biotinylated (site not given)); assay: phage ELISA on monomer-coated streptavidin plate (FIG. 1)
T1 construct: also called wt version of the peptide of interest in complex with the same HLA allele

Binding result, no binding:
B1

biological target: control 1 peptide (…, artificial sequence) HLA-B7 biotinylated monomer (biotinylated (site not given)); assay: as above

Binding result, no binding:
B1

biological target: control 3 peptide (…, a different peptide from wt IDH2) HLA-B7 biotinylated monomer (biotinylated (site not given)); assay: as above

Binding result, no binding:
B1

biological target: p53 wt(245-254) peptide … with HLA-A2 and b2M on peptide-pulsed T2 cells (human); assay: flow cytometry, phage-displayed scFv on peptide-pulsed T2 cells (FIG. 4)
Protocol: (§1) Cells were stained with 10 μL of precipitated phage per 100 μL of cells, washed and stained with rabbit anti-M13 antibody, then washed and stained with anti-Rabbit-PE antibody. Cells were stained with a live/dead Near-IR dye, washed, and analyzed by an LSRII flow cytometer.
(§2) The pulsed cells were pelleted, washed once in cold stain buffer (PBS containing 0.5% BSA, 2 mM EDTA, and 0.1% sodium azide), and resuspended in 100 μL of stain buffer. Phage staining was performed on ice with 10 uL (approximately 1×10⁹) phage for 1 hour in 100 uL total volume, followed by one 4 mL wash in cold stain buffer. Cells were then stained with 1 uL of rabbit anti-M13 antibody (Pierce, Rockford, Ill.) in 100 uL total volume on ice for 1 hour and washed once with 4 mL of cold stain buffer. Cells were stained with anti-rabbit-PE (Biolegend) on ice for 1 hour in 100 uL total volume, followed by incubation with LIVE/DEAD Fixable Near-IR Dead Cell Stain (Thermo Fisher) for 10 min at room temperature per manufacturer's instructions. Cells were washed once in 4 mL of stain buffer followed by resuspension in 300 uL of stain buffer before analysis. Stained cells were analyzed using an LSRII flow cytometer (Becton Dickinson, Mansfield, Mass.).

Binding result, no binding:
B2
B3
B4
B5
B6
B7
B8

biological target: H/K/N RAS wt(55-64) peptide … with HLA-A1 and b2M on peptide-pulsed SigM5 cells (human); assay: flow cytometry, phage-displayed scFv on peptide-pulsed SigM5 cells (FIG. 14)
Protocol: as §1, §2

Binding result, no binding:
B9
B10
B11
B12

biological target: KRAS wt(7-16) peptide … with HLA-A11 and b2M on peptide-pulsed Hs611.T cells (human); assay: flow cytometry, phage-displayed scFv on peptide-pulsed Hs611.T cells (FIG. 11)
Protocol: as §1, §2

Binding result, no binding:
B13
B14
B15
B16
B17
B18

biological target: T2, IDH2 wt(134-143) peptide … with HLA-B7 and b2M on cells (human); assay: flow cytometry, phage-displayed scFv on peptide-pulsed RPMI-6666 cells (FIG. 3)
T2 construct: peptide-pulsed RPMI-6666 cells in flow cytometry
Protocol: as §1, §2

Binding result, no binding:
B1
